System: MS2 coat protein
Assay: apparent KD of MS2 coat protein; designed switch direction (-1 OFF switch, 1 ON switch): -1; higher = weaker reporter binding
How it was run: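 Apparent KD, taken as the median over clusters for each design, was obtained by curve-fitting normalised cluster fluorescence. Designed RNA switches had been transcribed on Illumina chips by stalled E. coli RNA polymerase and titrated with SNAP-549-labelled MS2 coat protein, doubling from 0.7 or 1.5 nM to 3 µM.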

[1] = Eterna round: R95, input ligand: FMN 200 uM
[2] = Eterna round: R95, input ligand: microRNA oligo, concentration not stated
[3] = Eterna round: R95, input ligand: none
[4] = input ligand: microRNA oligo, concentration not stated

With “AGAAAUGCCCAUGGCCGCAAGCUCUUUGCUUGUCUUACCACAUGAGGAUCACCCAUGUGACAUGGGCUCCUUAUAAU [Riquarge] (puzzle: Sensor v3, turn-off variant 2)” the “apparent KD of MS2 coat protein” value [1] was 13.9 nM, the “apparent KD of MS2 coat protein” value [2] was 9.77 nM and the “apparent KD of MS2 coat protein” value [3] was 12 nM.

In the case of “AGAACUCUAGUAGGAUAUGUCGGAUAUGUUGUUGAGGUUCACCCAACGACGUCAAUGACAGAGGGACAGAAGGACUCCUGUUCC [pwkr exNG2 2xFMN 1xF5.9] (Eterna round: R96, puzzle: Exclusion NG 2)”, the “apparent KD of MS2 coat protein” value (input ligand: FMN 200 uM) is reported as 873 nM, the “apparent KD of MS2 coat protein” value [4] is reported as 506 nM and the “apparent KD of MS2 coat protein” value (input ligand: none) is reported as 1110 nM.

For “AGAAGUAGUAACCGAUCCUACAUGAGGAUCACCCAUGUAGCUAGACGUGCACGCGAUGCUCGUCAGACUACCAGAUG [salish99_TOv1_r3_027] (puzzle: Sensor v3, turn-off variant 1)”, the “apparent KD of MS2 coat protein” value [1] was 171 nM, the “apparent KD of MS2 coat protein” value [2] was 136 nM and the “apparent KD of MS2 coat protein” value [3] was 171 nM.

In the case of “AGACAGUCAGGAUAUACAUGAGGAUCACCCAUGUUGAGAUGAGAAAGGGCAGGAAGAGGUAGAAGGGACAAGAG [JR_Exclu3_Sub036] (puzzle: Exclusion 3)”, the “apparent KD of MS2 coat protein” value [1] is reported as 25 nM, the “apparent KD of MS2 coat protein” value [2] is reported as 20.8 nM and the “apparent KD of MS2 coat protein” value [3] is reported as 24.8 nM.

With “AGAGAAUAGUCAGGAUAUGAGAAUAGAUAGAGCUCAGAAGGGACACAUGAGGAUCACCCAUGUGAAGUCUUGAGGCUGCGUGGA [Prohibition 20 - Jieux - Exclusion NG 1] (Eterna round: R96, puzzle: Exclusion NG 1)” the “apparent KD of MS2 coat protein” value [4] was 11.3 nM.

“AGAGAGUCAGGAUAUCGAAGGUAGAGAAGAGGAGAGUGGUACGAGAAGGGACAUGAGGAUCACCCAUGUAGGUG [JR_Exclusion4)Sub012] (puzzle: Exclusion 4)” was tested, and the “apparent KD of MS2 coat protein” value [1] was 193 nM, the “apparent KD of MS2 coat protein” value [2] was 245 nM and the “apparent KD of MS2 coat protein” value [3] was 462 nM.

With “AGAGUGCUGCGAGGAUAUACAUGAGGAUCACCCAUGUAAAAGUGUGAGGCAAAGCCUCACACGAAGUAGAAGGCGCAGUACUCA [Mat - Exclusion NG 2 - Mod of JL - D34] (Eterna round: R96, puzzle: Exclusion NG 2)” the “apparent KD of MS2 coat protein” value (input ligand: FMN 200 uM) was 12.8 nM, the “apparent KD of MS2 coat protein” value [4] was 9.85 nM and the “apparent KD of MS2 coat protein” value (input ligand: none) was 25.2 nM.

In the case of “AGAGUGCUGCGAGGAUAUACAUGAGGAUCACCCAUGUAAAAGUGUGAGGCUUUGCCUCACACGAAGUAGAAGGCGCAGUACUCA [Mat - Exclusion NG 2 - Mod of JL - D33] (Eterna round: R96, puzzle: Exclusion NG 2)”, the “apparent KD of MS2 coat protein” value (input ligand: FMN 200 uM) is reported as 13 nM, the “apparent KD of MS2 coat protein” value [4] is reported as 11.3 nM and the “apparent KD of MS2 coat protein” value (input ligand: none) is reported as 24.3 nM.

For “AGAUAGUGCUGAGGAUAUCUGAAUAGAAAGAAAAGAGAAGGCGGACAUGAGGAUCACCCAUGUGAGGUCUUGAGACUACAUGGU [Prohibition 37 - Jieux - Exclusion NG 1] (Eterna round: R96, puzzle: Exclusion NG 1)”, the “apparent KD of MS2 coat protein” value (input ligand: FMN 200 uM) was 393 nM, the “apparent KD of MS2 coat protein” value [4] was 42.9 nM and the “apparent KD of MS2 coat protein” value (input ligand: none) was 80.4 nM.

For “AGAUCACAUGAGGAUCACCCAUGUCAGGAUAUCAUCAUUGAAGCCUCGGCUUCAAUGAUGAGAAGGGACAUAAU [E1/2-B2] (Eterna round: R97, puzzle: Exclusion 1)”, the “apparent KD of MS2 coat protein” value (input ligand: FMN 200 uM) was 546 nM and the “apparent KD of MS2 coat protein” value (input ligand: none) was 465 nM.

With “AGAUGCAGAGUAAGGAUAUGGUAGGCUUGCGCAAACCAGAAGGUACAUGAGGAUCACCCAUGUAAGCAUCAAGU [eternacac ex4r4 #5] (Eterna round: R97, puzzle: Brourd's mod of Exclusion 4)” the “apparent KD of MS2 coat protein” value (input ligand: FMN 200 uM) was 16 nM and the “apparent KD of MS2 coat protein” value (input ligand: none) was 15.1 nM.

“AGAUGCUUAAGUCGACAUGAGGAUCACCCAUGUACAGUUAACGAGGAUAUCCGAGAUAAAUAAUAGGAGAAGGCGUGAUCAUGA [Ex NG3 #2] (Eterna round: R96, puzzle: Exclusion NG 3)” was tested, and the “apparent KD of MS2 coat protein” value (input ligand: FMN 200 uM) was 56.6 nM, the “apparent KD of MS2 coat protein” value [4] was 363 nM and the “apparent KD of MS2 coat protein” value (input ligand: none) was 277 nM.

For “AGAUGGCGAGGAUAUACAUGAGGAUCACCCAUGUGAGAUAAAAGAGUGAGGAAGAAAAGUAGAAGGCGCUGUCA [Mat - Exclusion 3 - Mod of Salish D16] (puzzle: Exclusion 3)”, the “apparent KD of MS2 coat protein” value [1] was 116 nM, the “apparent KD of MS2 coat protein” value [2] was 95.8 nM and the “apparent KD of MS2 coat protein” value [3] was 120 nM.

“AGAUGGCGAGGAUAUACAUGAGGAUCACCCAUGUGAGAUAAGAAAGUGAGGAAGAAAAGUAGAAGGCGCUGUCA [Mat - Exclusion 3 - Mod of Salish D12] (puzzle: Exclusion 3)” was tested, and the “apparent KD of MS2 coat protein” value [1] was 281 nM, the “apparent KD of MS2 coat protein” value [2] was 58.6 nM and the “apparent KD of MS2 coat protein” value [3] was 58.4 nM.

With “AGAUGUACCUAGGAUAUCCGUCGAAUUGGACUAGGAGAAGGAGGUACAUGAGGAUCACCCAUGUAUGACUCCUG [Bemabice] (puzzle: Exclusion 6)” the “apparent KD of MS2 coat protein” value [2] was 10.1 nM.

With “AGAUGUAGAUACCGGUCCUACAUGAGGAUCACCCAUGUAGCUAGACGUGCGGGCGGCGCUCGUCGGUCUACCAGUAG [salish99_TOv1_r3_099] (puzzle: Sensor v3, turn-off variant 1)” the “apparent KD of MS2 coat protein” value [1] was 30.2 nM, the “apparent KD of MS2 coat protein” value [2] was 30.7 nM and the “apparent KD of MS2 coat protein” value [3] was 37.7 nM.

With “AGCAGACGAGGAUAUAAACGAUAUAACAUGAGGAUCACCCAUGUACGAUCGAAUGAUCGUUUAGAAGGCGUCUGCU [E5/10-A2] (Eterna round: R97, puzzle: Exclusion 5)” the “apparent KD of MS2 coat protein” value (input ligand: FMN 200 uM) was 17.3 nM and the “apparent KD of MS2 coat protein” value (input ligand: none) was 15.1 nM.

For “AGCAUGGUAGGAUAUACGGAACAUUAGGGUUUGUUGUGUGGACAUGAGGAUCACCCAUGUAGAAGGGCCGUGCA [Mat - Exclusion 2 - Mod of JL - D81] (puzzle: Exclusion 2)”, the “apparent KD of MS2 coat protein” value [2] was 33.7 nM.

For “AGCCAAGCAGGAUAUGCACGUAAUAACAUGAGGAUCACCCAUGUGACCGAUUUAUAUUCUGCAGAAGGGCUUGGAA [LRO-Excl5-14-mod of Erxesoan mod by Eli Fisker] (Eterna round: R97, puzzle: Exclusion 5)”, the “apparent KD of MS2 coat protein” value (input ligand: FMN 200 uM) was 143 nM and the “apparent KD of MS2 coat protein” value (input ligand: none) was 29.7 nM.

With “AGCCACAGAGGAUAUACAUACAUCCAGUAGUAGAUACUACUACAUGAGGAUCACCCAUGUAGAAGGCUGUGGCA [Omei Ex2 BD B17] (Eterna round: R97, puzzle: Exclusion 2)” the “apparent KD of MS2 coat protein” value (input ligand: FMN 200 uM) was 603 nM and the “apparent KD of MS2 coat protein” value (input ligand: none) was 162 nM.

With “AGCCUGUAAUCCCUCAGACAUGAGGAUCACCCAUGUGGAUGUAAGGAUAUAGGUGCAAUUGCAAUCUAGAAGGUACGCCGUCAG [Eternabot solution 32] (Eterna round: R96, puzzle: Exclusion NG 3)” the “apparent KD of MS2 coat protein” value (input ligand: FMN 200 uM) was 44.8 nM, the “apparent KD of MS2 coat protein” value [4] was 23.1 nM and the “apparent KD of MS2 coat protein” value (input ligand: none) was 31.4 nM.

“AGCGAAUAGCUAGGAUAUGAGAAUAGAUAGAGCUCAGAAGGAGCACAUGAGGAUCACCCAUGUGAAGUCUUGAGGCUGCGUGGU [Prohibition 17 - Jieux - Exclusion NG 1] (Eterna round: R96, puzzle: Exclusion NG 1)” was tested, and the “apparent KD of MS2 coat protein” value (input ligand: FMN 200 uM) was 20.8 nM, the “apparent KD of MS2 coat protein” value [4] was 14.7 nM and the “apparent KD of MS2 coat protein” value (input ligand: none) was 18.8 nM.

“AGCGCCAUCGUGAGAUGGCGUAUUACAUGAGGAUCACCCAUGUAGGAUAUCGAUUGCUUUGCAGUCGAGAAGGACAUGUUCUUG [JL ENG3 3.80 Mod B] (Eterna round: R96, puzzle: Exclusion NG 3)” was tested, and the “apparent KD of MS2 coat protein” value [4] was 39.4 nM.

“AGCGUGGAGACAGGAUAUGAGAAUAGAUAGAAAUCAGAAGGGUCACAUGAGGAUCACCCAUGUAAAGUCUUGAGGAUGAGUGAU [Prohibition 3 - Jieux - Exclusion NG 1] (Eterna round: R96, puzzle: Exclusion NG 1)” was tested, and the “apparent KD of MS2 coat protein” value [4] was 70.4 nM.

In the case of “AGCUAGAUAGGAUAUGCCCGAGAUAACAUGAGGAUCACCCAUGUGACCGAAUCAAAUCUAGCAGAAGGGUUUAGGA [Mod of ViennaUCT 15 - Jieux - Exclusion 5] (Eterna round: R97, puzzle: Exclusion 5)”, the “apparent KD of MS2 coat protein” value (input ligand: FMN 200 uM) is reported as 16.5 nM and the “apparent KD of MS2 coat protein” value (input ligand: none) is reported as 17.2 nM.

With “AGCUGACGAGGAUAUACAUGAGGAUCACCCAUGUUGGUCAAGCGACGAUAGUCGCAAUGUAGAAGGCGUCAGCU [E3/8-A1] (Eterna round: R97, puzzle: Exclusion 3)” the “apparent KD of MS2 coat protein” value (input ligand: FMN 200 uM) was 621 nM and the “apparent KD of MS2 coat protein” value (input ligand: none) was 547 nM.

With “AGCUGUGGCCGAGGAUAUCAAGAACCAUGGAAAACCAUGGAACCUUGACAUGAGGAUCACCCAUGUGAGAAGGCGGUCUCAGCA [Eli eng2 - 026] (Eterna round: R96, puzzle: Exclusion NG 2)” the “apparent KD of MS2 coat protein” value [4] was 11.1 nM.

“AGCUGUGGCCGAGGAUAUCUAACAGUCCCAACCGAAAUAUAAUCGGACAUGAGGAUCACCCAUGUAGAGAAGGCGGUCUCAGCA [Eli eng2 - 072] (Eterna round: R96, puzzle: Exclusion NG 2)” was tested, and the “apparent KD of MS2 coat protein” value (input ligand: FMN 200 uM) was 324 nM, the “apparent KD of MS2 coat protein” value [4] was 157 nM and the “apparent KD of MS2 coat protein” value (input ligand: none) was 222 nM.

With “AGGACGGCAGGAUAUACAUGAGGAUCACCCAUGUCUGGUGUCGAGCUAAUUGUGCAUAGUAGAAGGGUCGCUCC [Eternabot (L1) Solution 39] (Eterna round: R97, puzzle: Exclusion 3)” the “apparent KD of MS2 coat protein” value (input ligand: FMN 200 uM) was 204 nM and the “apparent KD of MS2 coat protein” value (input ligand: none) was 62.1 nM.

With “AGGAGACAUGAGGAUCACCCAUGUGAGGAUAUCGAUGUUACGUGGAUAACCACUUCGUUGAGAAGGCACGCUUC [Eternabot (L2) Solution 55] (Eterna round: R97, puzzle: Exclusion 1)” the “apparent KD of MS2 coat protein” value (input ligand: FMN 200 uM) was 43 nM and the “apparent KD of MS2 coat protein” value (input ligand: none) was 38.6 nM.

In the case of “AGGAUGUAAGGAUAUCCAAGGGUAACGCCAAUGGCAGCCCAGGAGAAGGUACAUGAGGAUCACCCAUGUGAUAA [Leatbi] (Eterna round: R97, puzzle: Exclusion 4)”, the “apparent KD of MS2 coat protein” value (input ligand: FMN 200 uM) is reported as 263 nM and the “apparent KD of MS2 coat protein” value (input ligand: none) is reported as 80.8 nM.

“AGGAUGUUAGGAUAUGCUAGAGUACUACAGAGUACUACGGAGCAGAAGGAACAUGAGGAUCACCCAUGUCACCU [Exclusion 4 R4 S1] (Eterna round: R97, puzzle: Exclusion 4)” was tested, and the “apparent KD of MS2 coat protein” value (input ligand: FMN 200 uM) was 19.9 nM and the “apparent KD of MS2 coat protein” value (input ligand: none) was 14 nM.

In the case of “AGGCGUGCUGAGGAUAUACUACCGGGUGCGAUAGUAGAAGGUAGCACAUGAGGAUCACCCAUGUGGUCAGAUGC [Qureaor] (puzzle: Exclusion 6)”, the “apparent KD of MS2 coat protein” value [1] is reported as 56.3 nM, the “apparent KD of MS2 coat protein” value [2] is reported as 20 nM and the “apparent KD of MS2 coat protein” value [3] is reported as 23.6 nM.

Source: the supplement of paper PMC9170038
